Assay results from FireProtDB.

Conditions: Bombyx mori, whole UniProt chain shown; for Tm / unfolding enthalpy (calorimetric) / unfolding enthalpy (van 't Hoff): Thermal, DSC
[1] = pH 3.5, sodium acetate buffer 50 mM
[2] = pH 4, sodium acetate buffer 50 mM
[3] = pH 4.5, sodium acetate buffer 50 mM
[4] = pH 5, sodium acetate buffer 50 mM
[5] = pH 8, 25 °C, GdnHCl, CD, Tris-HCl 50 mM

B1: Lysozyme wild type, P48816 (protein)
chain: MQKLIIFALVVLCVGSEAKTFTRCGLVHELRKHGFEENLMRNWVCLVEHESSRDTSKTNTNRNGSKDYGLFQINDRYWCSKGASPGKDCNVKCSDLLTDDITKAAKCAKKIYKRHRFDAWYGWKNHCQGSLPDISSC
Tm (pH 3, glycine-HCl 50 mM): 45.2 °C | unfolding enthalpy (calorimetric) (pH 3, glycine-HCl 50 mM): 325 kJ/mol | unfolding enthalpy (van 't Hoff) (pH 3, glycine-HCl 50 mM): 338 kJ/mol | Tm (pH 3.25, glycine-HCl 50 mM): 51 °C | unfolding enthalpy (calorimetric) (pH 3.25, glycine-HCl 50 mM): 341 kJ/mol | unfolding enthalpy (van 't Hoff) (pH 3.25, glycine-HCl 50 mM): 363 kJ/mol | Tm [1]: 56 °C | unfolding enthalpy (calorimetric) [1]: 370 kJ/mol | unfolding enthalpy (van 't Hoff) [1]: 382 kJ/mol | Tm [2]: 59.3 °C | unfolding enthalpy (calorimetric) [2]: 385 kJ/mol | unfolding enthalpy (van 't Hoff) [2]: 387 kJ/mol | Tm [3]: 62.8 °C | unfolding enthalpy (calorimetric) [3]: 394 kJ/mol | unfolding enthalpy (van 't Hoff) [3]: 392 kJ/mol | Tm [4]: 65.3 °C | unfolding enthalpy (calorimetric) [4]: 417 kJ/mol | unfolding enthalpy (van 't Hoff) [4]: 398 kJ/mol | denaturant m value [5]: 3.4 kcal/mol/M | denaturant midpoint (higher = more stable) [5]: 2.39 M | unfolding free energy [5]: 33.9 kJ/mol
